Measured values published in the supplement of paper PMC10567573.

B1: TNXB (parent)
chain: LLQRELMVPGTRHSAVLRDLRSGT
B2: RHOBTB2 (parent)
chain: NQEITKAFHVRRTNRVKECLAKGT

Variants of: B1
Test: protein stability index of a GFP-peptide fusion (GPS, HEK-293T) (PSI 1-6); higher = more stable
Settings: c terminus: a fixed tail appended
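Also: lentivirally expressed fusions sorted by FACS into six bins by GFP to DsRed ratio, PSI derived from sequencing read proportions per bin multiplied by bin number.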

Protein stability index: each site, then its substitutions
S22: W 1.71; Y 2.18
G23: A 2.31; C 2.36; D 3.38; E 3.05; F 2.82; H 2.31; I 2.35; K 2.92; L 1.81; M 2.22; N 2.58; P 2.14; Q 3.73; R 2.72; S 2.94; T 2.43; V 2.13; W 2.09; Y 2.14
T24: A 2.7; C 1.77; D 2.5; E 1.83; F 2.13; G 3.51; H 2.13; I 1.72; K 2.03; L 2; M 2.29; N 2.37; P 2.54; Q 2.49; R 2.88; S 2.2; V 2.29; W 1.84; Y 2.64

Variants of: B2
Test: as above
Settings: c terminus: a fixed tail appended

Protein stability index, by site and new letter:
N1: A 4.01; C 2.25; E 4.01; F 2.07; G 2.88; H 2.86; I 1.59; K 3.49; L 2.31; M 2.66; P 4.54; Q 3.87; S 3.94; T 1.57; V 3.07; W 2.45; Y 2.26
Q2: A 3.21; C 3.16; D 4.2; E 4.05; F 3.01; G 2.39; H 3.53; I 2.6; K 3.78; L 2.4; M 3.01; N 3.42; P 3.4; R 2.83; T 3.74; V 3.5; W 2.69; Y 3.31
E3: C 2.31; D 2.63; F 2.04; G 3.15; H 2.47; I 2.57; K 3.06; L 3.66; M 2.87; N 3.38; P 3.38; Q 2.22; R 3.02; S 2.26; V 2.4; W 3.8; Y 2.23
I4: A 4.92; D 4.37; E 4.32; F 3.46; G 4.42; H 4.13; K 3.75; L 3.51; M 4.25; N 3.38; P 4.43; R 3.72; S 4.49; T 5.01; W 3.21
T5: A 3.75; C 2.04; D 3.84; E 4.16; F 2.67; G 2.21; H 4.29; I 4.04; K 4.06; L 2.86; M 3.42; N 3.22; P 3.88; Q 4.06; R 3.7; S 3.48; V 3.51; W 3; Y 3.46
K6: C 2.21; D 4; E 4.03; F 2.97; G 3.49; H 3.87; I 1.51; L 2.84; M 2.29; N 3.25; P 4.09; Q 3.18; R 2.87; S 2.77; T 3.43; V 2.1; W 2.34; Y 2.25
A7: C 2.94; D 3.82; E 4.16; H 2.52; K 3.51; L 2.85; M 2.48; N 3.2; P 4.3; Q 3.5; R 3.76; T 3.11; V 1.02; W 3.34; Y 2.29
F8: A 4.6; C 4.96; D 4.67; E 4.62; G 4.63; H 4.73; I 4.37; K 4.15
